PMC13787487 (2026)

Tests used:
Assay in all cases: FP
PSD-95 PDZ2 = biological target: T1, PSD-95 PDZ2 (UniProt P78352)
T1 chain: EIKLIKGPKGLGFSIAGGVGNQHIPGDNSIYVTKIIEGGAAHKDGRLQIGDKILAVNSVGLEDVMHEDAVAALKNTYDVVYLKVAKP

SHANK2 PDZ = biological target: T2, SHANK2 PDZ (UniProt Q9UPX8)
T2 chain: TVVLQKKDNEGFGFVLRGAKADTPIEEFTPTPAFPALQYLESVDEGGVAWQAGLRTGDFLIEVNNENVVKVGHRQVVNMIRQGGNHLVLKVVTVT

SHANK1 PDZ = biological target: T3, SHANK1 PDZ (UniProt Q9Y566)
T3 chain: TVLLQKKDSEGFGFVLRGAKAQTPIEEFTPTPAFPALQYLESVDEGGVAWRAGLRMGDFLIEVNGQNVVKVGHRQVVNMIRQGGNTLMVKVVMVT

PSD-95 PDZ3 = biological target: T4, PSD-95 PDZ3 (UniProt P78352)
T4 chain: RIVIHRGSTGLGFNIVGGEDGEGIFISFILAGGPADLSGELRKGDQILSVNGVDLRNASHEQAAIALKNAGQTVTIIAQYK

SHANK3 PDZ = biological target: T5, SHANK3 PDZ (UniProt Q9BYB0)
T5 chain: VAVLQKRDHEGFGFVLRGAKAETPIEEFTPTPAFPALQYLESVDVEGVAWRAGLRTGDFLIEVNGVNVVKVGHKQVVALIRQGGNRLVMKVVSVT

## YNRTNRSRMPNLNDLKETAL [CDKL5-1 941-960]
PSD-95 PDZ2
  Kd: 31.3 µM
SHANK2 PDZ
  Kd: 5.2 µM
SHANK1 PDZ
  Kd: 7.6 µM
PSD-95 PDZ3
  Kd: 40.7 µM
SHANK3 PDZ
  Kd: 8.6 µM
